For the experiment, the target named is integrin αIIbβ3 on K562 cells stably expressing recombinant αIIbβ3 (αIIbβ3-K562) (UniProt P08514 32-1039; P05106 27-788). The experiment in a line: flow cytometry on cells. Background: Flow cytometry measures light scatter and fluorescence of single cells or particles in a stream.

In general, IC50 refers to the concentration that gives 50% inhibition.

Consider RGDWPC (homoarginine (Har) at position 2) [Eptifibatide], for which the concentration for half-maximal inhibition (IC50) was 73.2 nM.

These data come from article doi:10.1101/509299 (bioRxiv, 2019).
